Patent US20210054076A1 (Chugai, published 2021)

Experiments:
[1] = molecular target: T1, human CLDN4 (human, UniProt O14493 1-209); experiment: FACS on Ba/F3 transfectant, antibody 20 micro g/ml, FITC anti-human IgG
T1 construct: whole, on cells; also called hCLDN4; BaF3_hCLDN4
T1 sequence (looked up): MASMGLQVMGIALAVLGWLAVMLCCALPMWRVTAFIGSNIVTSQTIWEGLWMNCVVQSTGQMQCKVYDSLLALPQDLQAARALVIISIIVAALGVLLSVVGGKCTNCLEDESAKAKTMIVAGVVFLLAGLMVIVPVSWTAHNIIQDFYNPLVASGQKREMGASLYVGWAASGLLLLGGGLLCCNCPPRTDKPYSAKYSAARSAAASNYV
Experimental: (§1) To evaluate the binding activity and specificity of the generated CLDN6-TRABs against CLDN6 and other Claudin family antigens, FACS analysis was conducted as follows. Ba/F3 transfectants stably express a kind of protein selected from human CLDN3 (hCLDN3), human CLDN4 (hCLDN4), human CLDN6 (hCLDN6), human CLDN9 (hCLDN9), mouse CLDN3 (mCLDN3), mouse CLDN4 (mCLDN4) and mouse CLDN6 (mCLDN6), were generated using similar method described in WO2008/087978, and named BaF3_hCLDN3, BaF3_hCLDN4, BaF3_hCLDN6, BaF3_hCLDN9, BaF3 mCLDN3, BaF3 mCLDN4, BaF3 mCLDN6, respectively. Each of the CLDN6-TRABs (CH01/CD3, CH02/CD3, CH03/CD3, CH04/CD3) was incubated with the Ba/F3 transfectants at an antibody concentration of 20 micro g/ml in FACS buffer (0.5% BSA containing autoMACS Rinsing Solution, Miltenyl Biotec). Binding activities of each CLDN6-TRAB to the Claudin family proteins (hCLDN3, hCLDN4, hCLDN6, hCLDN9, mCLDN3, mCLDN4, mCLDN6) were examined by incubation of FITC-conjugated goat anti human IgG (BeckmanCoulter), represented as Geo-mean value. Sample processing was conducted on FACSVerse (BD).
(§2) Claudin family proteins have two extracellular domains. The sequence of the first extracellular domain in human CLDN9 is almost the same compared with the first extracellular domain of human CLDN6. For the second extracellular domain of human CLDN9, there are only two amino acids different from the ones at their corresponding positions in human CLDN6 (FIG. 2). The glutamine at position 156 of human Claudin 6 (position 156 in the sequence shown in SEQ ID NO: 44 or 45) was substituted to leucine to make a human CLDN6 mutant comprising the same amino acid as human Claudin 9 at position 156. This human CLDN6 mutant was named as hCLDN6(Q156L) (SEQ ID NO: 53). Ba/F3 transfectant stably express hCLDN6(Q156L) was generated using similar method described in WO2008/087978. The established Ba/F3 transfectant was named BaF3_hCLDN6(Q156L). Binding activity of the generated CLDN6-TRABs against BaF3_hCLDN6(Q156L) was measured using the above mentioned FACS method and the results are shown in FIG. 1 and Table 3.

[2] = molecular target: T2, hCLDN6(Q156L) (human, UniProt P56747 1-220); experiment: as above
T2 construct: Stably expressed on Ba/F3 cells; also called human CLDN6 mutant; BaF3_hCLDN6(Q156L)
T2 chain: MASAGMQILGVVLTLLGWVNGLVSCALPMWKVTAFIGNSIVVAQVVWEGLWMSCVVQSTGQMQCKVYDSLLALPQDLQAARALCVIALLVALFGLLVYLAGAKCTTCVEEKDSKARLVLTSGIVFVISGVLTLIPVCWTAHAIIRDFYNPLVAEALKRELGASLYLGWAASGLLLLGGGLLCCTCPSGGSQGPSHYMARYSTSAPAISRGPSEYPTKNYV
Experimental: as §1, §2

[3] = molecular target: T3, mouse CLDN4 (mouse, UniProt O35054 1-210); experiment: as above
T3 construct: whole, on cells; also called mCLDN4; BaF3_mCLDN4
T3 sequence (looked up): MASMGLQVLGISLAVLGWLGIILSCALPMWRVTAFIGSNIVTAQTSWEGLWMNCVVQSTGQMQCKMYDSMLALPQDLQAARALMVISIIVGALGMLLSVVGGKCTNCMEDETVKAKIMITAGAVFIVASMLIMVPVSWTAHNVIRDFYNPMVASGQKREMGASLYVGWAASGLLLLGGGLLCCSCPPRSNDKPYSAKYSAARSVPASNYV
Experimental: as §1, §2

[4] = molecular target: T4, human CLDN6 (human, UniProt P56747 1-220); experiment: as above
T4 sequence: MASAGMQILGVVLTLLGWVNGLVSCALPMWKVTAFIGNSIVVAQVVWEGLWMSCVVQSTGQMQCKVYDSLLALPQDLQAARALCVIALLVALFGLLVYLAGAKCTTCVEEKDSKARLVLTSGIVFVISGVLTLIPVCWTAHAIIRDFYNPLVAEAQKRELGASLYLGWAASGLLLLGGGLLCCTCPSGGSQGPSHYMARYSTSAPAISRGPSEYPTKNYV
Experimental: as §1, §2

[5] = molecular target: T5, mouse CLDN6 (mouse, UniProt Q9Z262 1-219); experiment: as above
T5 construct: whole, on cells; also called mCLDN6; BaF3_mCLDN6
T5 sequence (looked up): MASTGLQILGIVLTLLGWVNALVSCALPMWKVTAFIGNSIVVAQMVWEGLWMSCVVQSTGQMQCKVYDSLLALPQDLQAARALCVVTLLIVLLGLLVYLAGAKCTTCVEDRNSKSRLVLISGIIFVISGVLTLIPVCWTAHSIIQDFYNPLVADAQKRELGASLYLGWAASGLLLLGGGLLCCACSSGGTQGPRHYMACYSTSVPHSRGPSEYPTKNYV
Experimental: as §1, §2

[6] = molecular target: T6, human CLDN3 (human, UniProt O15551 1-220); experiment: as above
T6 construct: whole, on cells; also called hCLDN3; BaF3_hCLDN3
T6 sequence (looked up): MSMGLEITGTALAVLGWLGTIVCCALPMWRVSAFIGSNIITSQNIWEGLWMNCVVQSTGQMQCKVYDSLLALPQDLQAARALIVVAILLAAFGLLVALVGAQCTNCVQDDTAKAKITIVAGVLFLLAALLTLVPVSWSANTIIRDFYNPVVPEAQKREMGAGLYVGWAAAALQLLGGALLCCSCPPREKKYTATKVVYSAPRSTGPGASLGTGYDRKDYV
Experimental: as §1, §2

[7] = molecular target: T7, human CLDN9 (human, UniProt O95484 1-217); experiment: as above
T7 construct: whole, on cells; also called hCLDN9; BaF3_hCLDN9
T7 sequence (looked up): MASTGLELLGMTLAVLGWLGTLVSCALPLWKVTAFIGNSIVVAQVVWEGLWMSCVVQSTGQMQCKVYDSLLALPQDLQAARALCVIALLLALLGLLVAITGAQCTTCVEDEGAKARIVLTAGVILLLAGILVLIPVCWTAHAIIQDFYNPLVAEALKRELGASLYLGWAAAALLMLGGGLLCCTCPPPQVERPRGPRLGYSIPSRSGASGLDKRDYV
Experimental: as §1, §2

[8] = molecular target: T8, mouse CLDN3 (mouse, UniProt Q9Z0G9 1-219); experiment: as above
T8 construct: whole, on cells; also called mCLDN3; BaF3_mCLDN3
T8 sequence (looked up): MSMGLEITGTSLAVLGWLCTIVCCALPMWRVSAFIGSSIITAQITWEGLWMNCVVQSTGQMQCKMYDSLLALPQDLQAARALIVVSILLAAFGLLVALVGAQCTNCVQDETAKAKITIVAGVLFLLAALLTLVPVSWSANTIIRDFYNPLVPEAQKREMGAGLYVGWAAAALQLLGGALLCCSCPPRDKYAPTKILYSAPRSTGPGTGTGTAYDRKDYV
Experimental: as §1, §2

[9] = molecular target: T4, human CLDN6; experiment: cell-based or functional assay
[10] = molecular target: T4, human CLDN6; experiment: cell-based or functional assay; remark: listed apart in the source

## isotype control (antibody)
[1]
  Geo-mean value of FACS: 42
[2]
  Geo-mean value of FACS: 62
[3]
  Geo-mean value of FACS: 31
[4]
  Geo-mean value of FACS: 29
[5]
  Geo-mean value of FACS: 43
[6]
  Geo-mean value of FACS: 78
[7]
  Geo-mean value of FACS: 96
[8]
  Geo-mean value of FACS: 29

B1: CH02/CD3 (bispecific antibody, human IgG1, kappa, N297A)
heavy 1: EVQVEQSGLELVKPGASVKISCKTSGYTFTEYTMHWVKQSHGKSLEWIGGINPNNGNTRYNQKFKDKATLTVDKSSRTAYMELHTLTSEDSAVYYCARCGDYDLFFFFAYWGQGTLVTVSAASTKGPSVFPLAPSSKSTSGGTAALGCLVKDYFPEPVTVSWNSGALTSGVHTFPAVLQSSGLYSLSSVVTVPSSSLGTQTYICNVNHKPSNTKVDKKVEPKSCDKTHTCPPCPAPELRGGPKVFLFPPKPKDTLMISRTPEVTCVVVDVSHEDPEVKFNWYVDGVEVHNAKTKPREEQYASTYRVVSVLTVLHQDWLNGKEYKCKVSNKALPAPIEKTISKAKGQPREPQVYTLPPSREEMTKNQVSLTCLVKGFYPSDIAVEWESNGQPENNYKTTPPYLDSDGSFFLYSKLTVDKSRWQQGNVFSCSVMHEALHNHYTQESLSLSP
light 1: DIVMTQFQKFMSTSVGDRVSVTCKASQNVGTNVAWYQQKPGQSPEALISSASSRFSGVPDRFTGSGSGTDFTLTITNVQSEDLADYFCQQYNSFPFTFGSGTELEIKRTVAAPSVFIFPPSDEQLKSGTASVVCLLNNFYPREAKVQWKVDNALQSGNSQESVTEQDSKDSTYSLSSTLTLSKADYEKHKVYACEVTHQGLSSPVTKSFNRGEC
heavy 2: QVQLVESGGGVVQPGGSLRLSCAASGFTFSNAWMHWVRQAPGKGLEWVAQIKDKSQNYATYVAESVKGRFTISRADSKNSIYLQMNSLKTEDTAVYYCRYVHYAAGYGVDIWGQGTTVTVSSASTKGPSVFPLAPSSKSTSGGTAALGCLVKDYFPEPVTVSWNSGALTSGVHTFPAVLQSSGLYSLSSVVTVPSSSLGTQTYICNVNHKPSNTKVDKKVEPKSCDKTHTCPPCPAPELRGGPKVFLFPPKPKDTLMISRTPEVTCVVVDVSHEDPEVKFNWYVDGVEVHNAKTKPREEQYASTYRVVSVLTVLHQDWLNGKEYKCKVSNKALPAPIEKTISKAKGQPREPQVYTLPPSRKEMTKNQVSLTCLVKGFYPSDIAVEWESNGQPENNYKTTPPYLDSDGSFFLYSKLTVDKSRWQQGNVFSCSVMHEALHNHYTQKSLSLSP
light 2: DIVMTQSPLSLPVTPGEPASISCRSSQPLVHSNRNTYLHWYQQKPGQAPRLLIYKVSNRFSGVPDRFSGSGSGTDFTLKISRVEAEDVGVYYCGQGTQVPYTFGQGTKLEIKRTVAAPSVFIFPPSDEQLKSGTASVVCLLNNFYPREAKVQWKVDNALQSGNSQESVTEQDSKDSTYSLSSTLTLSKADYEKHKVYACEVTHQGLSSPVTKSFNRGEC
notes: Made by Fab arm exchange of the bivalent anti-CLDN6 antibody CH02 with the bivalent anti-CD3 antibody CD3-1; human IgG1 constant region; One anti-CLDN6 arm and one anti-CD3 arm; also called CLDN6-TRAB; CLDN6-targeted T-cell redirecting bispecific antibody
[1]
  Geo-mean value of FACS: 35
[2]
  Geo-mean value of FACS: 69
[3]
  Geo-mean value of FACS: 22
[4]
  Geo-mean value of FACS: 4740
[5]
  Geo-mean value of FACS: 1760
[6]
  Geo-mean value of FACS: 37
[7]
  Geo-mean value of FACS: 84
[8]
  Geo-mean value of FACS: 27
[9]
  EC50 (read off the curve), Jurkat/NFAT-RE luciferase reporter, target cells ABC-1: ~0.05 nM
[10]
  EC50 (read off the curve), Jurkat/NFAT-RE luciferase reporter, target cells PA-1: ~0.03 nM
